In the DeepSol protein solubility set:

assay: soluble on expression in E. coli; label from the status in PepcDB or PDB records

Sequence | soluble on expression in E. coli
MILFDKNKRILKKYAKMVSKINQIESDLRSKKNSELIRLSMVLKEKVNSFEDADEHLFEAFALVREAARRTLGMRPFDVQVMGGIALHEGKVAEMKTGEGKTLAATMPIYLNALIGKGVHLVTVNDYLARRDALWMGPVYLFLGLRVGVINSLGKSYEVVWKNPDLARKAIEENWSVWPDGFNGEVLKEESMNKEAVEAFQVELKEITRKEAYLCDVTYGTNNEFGFDYLRDNLVLDYNDKVQRGHFYAIVDEADSVLIDEARTPLIISGPSKESPSVYRRFAQIAKKFVKDKDFTVDEKARTIILTEEGVAKAEKIIGVENLYDPGNVSLLYHLINALKALHLFKKDVDYVVMNGEVIIVDEFTGRLLPGRRYSGGLHQAIEAKEGVPIKEESITYATITFQNYFRMYEKLAGMTGTAKTEESEFVQVYGMEVVVIPTHKPMIRKDHDDLVFRTQKEKYEKIVEEIEKRYKKGQPVLVGTTSIEKSELLSSMLKKKGIPHQVLNAKYHEKEAEIVAKAGQKGMVTIATNMAGRGTDIKLGPGVAELGGLCIIGTERHESRRIDNQLRGRAGRQGDPGESIFFLSLEDDLLRIFGSEQIGKVMNILKIEEGQPIQHPMLSKLIENIQKKVEGINFSIRKTLMEMDDVLDKQRRAVYSLRDQILLEKDYDEYLKDIFEDVVSTRVEEFCSGKNWDIESLKNSLSFFPAGLFDLDEKQFSSSEELHDYLFNRLWEEYQRKKQEIGEDYRKVIRFLMLRIIDDHWRRYLEEVEHVKEAVQLRSYGQKDPIVEFKKETYYMFDEMMRRINDTIANYVLRVVKVSEKDEKEAKEELGKIRLVHEEFNLVNRAMRRATEKKKKKDGLHSFGRIRVKR | soluble
DLYDDDDKDPTLMKISRGLLKTILEAAKSAHPDEFIALLSGSKDVMDELIFLPFVSGSVSAVIHLDMLPIGMKVFGTVHSHPSPSCRPSEEDLSLFTRFGKYHIIVCYPYDENSWKCYNRKGEEVELEVVEKD | soluble
MTYDALHVFDWIKARSGDNPVYIWGHSLGTGVATNLVRRLCERETPPDALILESPFTNIREEAKSHPFSVIYRYFPGFDWFFLDPITSSGIKFANDENMKHISCPLLILHAEDDPVVPFHLGRKLYNIAAPSRSFRDFKVQFIPFHSDLGYRHKYIYKSPELPRILREFLGKSEPERQH | not soluble
MMSESNKQQAVNKLTEIVANFTAMISTRMPDDVVDKLKQLKDAETSSMGKIIYHTMFDNMQKAIDLNRPACQDTGEIMFFVKVGSRFPLLGELQSILKQAVEEATIKAPLRHNAVEIFDEVNTGKNTGSGVPWVTWDIVPDGDDAEIEVYMAGGGCTLPGRSKVLMPSEGYEGVVKFVFENISTLAVNACPPVLVGVGIATSVETAAVLSRKAILRPIGSRHPNPKAAELELRLEEGLNRLGIGPQGLTGNSSVMGVHIESAARHPSTIGVAVSTGCWAHRRGTLLVHADLTFENLSHTRSAL | not soluble
MNLHQTVEHEAAAAFAAAGIAGSPVVLQPTKNAEHGDFQINGVMGAAKKAKQNPRELAQKVADALAGNAVIESAEVAGPGFINLRLRHEFLAQNIHAALNDARF | not soluble
MGSDKIHHHHHHMYANKVKKIAAVHDLSGMGRVSLTVVIPILSSMGFQVCPLPTAVLSNHTQYPGFSFLDLTDEMPKIIAEWKKLEVQFDAIYTGYLGSPRQIQIVSDFIKDFRQPDSLIVADPVLGDNGRLYTNFDMEMVKEMRHLITKADVITPNLTELFYLLDEPYKADSTDEELKEYLRLLSDKGPQVVIITSVPVHDEPHKTSVYAYNRQGNRYWKVTCPYLPAHYPGTGDTFTSVITGSLMQGDSLPMALDRATQFILQGIRATFGYEYDNREGILLEKVLHNLDMPIQMASYELI | not soluble
MNSYPLISVIMSVYKEEREWLVSSIQSILDQTVSDFEFIIILDFPNSELLKTLKDFEKKDSRIIIYQNEKNVGLVESLNTALSFSRGKYIARMDADDISHKNRFEKQLKYITLNNLDLVGGNVNIFHSNKGIYNTTDKVQSDYFLCKLLKIGTIGIVHPTFFSKRNVYDTIGGYYHAECAEDLELLMRANLNGFKIGNIPDVILDCRYSEKSITKENAYFMFCTVKYLKSLYRSSLKSGDYKFNSNYIELYLYDENNKLAFSEKQNLMSEARHSFNEKKYISFLINLIKSILISRTVFFSIKVNVMSFLFRKVEVKIPKVLLACIKIKLQLEHHHHHH | soluble
MTHKGSCHCGRIAFEVDGEPGSAMACNCSICQRKGSLLWFVPREHLHLLTPDENASTYTFNKHVIRHRFCPVCGMHPYGEGTGADGKAMVAINIRCLEDIDLAAVPVTQFDGRSRLEHHHHHH | soluble
